Common to all, as to experiment: SPR, Carterra LSA, antibody immobilised
For assay [1], the target named is T1, murine MerTK extracellular domain (ECD), recombinant (mouse, UniProt Q60805 19-497).
T1 construct: also called moMerTK; mouse MerTK; not shown: polyHis tag or TEVS/Thrombin/murine IgG2a Fc tag
T1 sequence: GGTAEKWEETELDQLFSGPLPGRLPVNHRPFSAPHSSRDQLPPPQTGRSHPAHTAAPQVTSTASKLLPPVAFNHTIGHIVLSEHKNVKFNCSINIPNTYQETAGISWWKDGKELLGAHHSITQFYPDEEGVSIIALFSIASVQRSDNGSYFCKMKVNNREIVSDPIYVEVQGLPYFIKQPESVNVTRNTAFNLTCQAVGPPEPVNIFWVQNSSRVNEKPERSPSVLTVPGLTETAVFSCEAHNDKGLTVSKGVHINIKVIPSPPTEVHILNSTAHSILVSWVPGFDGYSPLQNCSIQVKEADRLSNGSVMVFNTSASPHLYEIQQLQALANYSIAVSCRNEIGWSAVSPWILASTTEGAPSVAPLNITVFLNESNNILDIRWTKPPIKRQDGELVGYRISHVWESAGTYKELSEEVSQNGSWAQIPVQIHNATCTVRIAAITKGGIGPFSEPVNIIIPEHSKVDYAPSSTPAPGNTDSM
How it is done:
(§1) Binding kinetics of humanized and affinity-matured anti-MerTK antibodies of the present disclosure to human, murine, and cynomolgus MerTK proteins were evaluated as follows. Briefly, anti-MerTK antibodies were prepared by diluting to 10 μg/ml in 10 mM Acetate, pH 4.25 (Carterra, Salt Lake City, Utah), at 300 μl/well. A HC200M sensor chip (Carterra) was activated using the single channel flow cell with a 7-minute injection of a 1:1:1 mixture of 100 mM MES pH 5.5, 100 mM sulfo-NHS, 400 mM EDC (all reconstituted in MES pH 5.5; 100 μl of each mixed in vial immediately before running assay). After switching to the multi-channel array flow cell, the antibodies were injected over the activated chip in a 96-spot array for 15 minutes. The remaining unconjugated active groups on the chip were then blocked by injecting 1M Ethanolamine pH 8.5 (Carterra) for 7 minutes using the single channel flow cell.
(§2) Estimates of affinity were generated by injecting each analyte over the entire antibody array using the single channel flow cell. MerTK analytes were diluted to 33.3, 100, and 300 nM in running buffer, and injected in serial from lowest to highest concentration without regeneration. Two buffer blanks were run between each series (one species per series). Data were processed and analyzed using NextGenKIT high-throughput kinetics analysis software (Carterra). In these experiments, the anti-MerTK antibodies were human IgG1 isotype containing the Fc variant LALAPS.
(§3) The equilibrium dissociation constants (KD) were then calculated from the fitted association and dissociation rate constants (k-on and k-off) for anti-MerTK antibodies of the present disclosure.

Assay [2] concerns the target T2, cyno MerTK extracellular domain (ECD), recombinant (cynomolgus monkey, UniProt Q12866 21-505 (human entry)).
T2 construct: also called cynomolgus MerTK; not shown: polyHis tag or TEVS/Thrombin/murine IgG2a Fc tag
T2 chain: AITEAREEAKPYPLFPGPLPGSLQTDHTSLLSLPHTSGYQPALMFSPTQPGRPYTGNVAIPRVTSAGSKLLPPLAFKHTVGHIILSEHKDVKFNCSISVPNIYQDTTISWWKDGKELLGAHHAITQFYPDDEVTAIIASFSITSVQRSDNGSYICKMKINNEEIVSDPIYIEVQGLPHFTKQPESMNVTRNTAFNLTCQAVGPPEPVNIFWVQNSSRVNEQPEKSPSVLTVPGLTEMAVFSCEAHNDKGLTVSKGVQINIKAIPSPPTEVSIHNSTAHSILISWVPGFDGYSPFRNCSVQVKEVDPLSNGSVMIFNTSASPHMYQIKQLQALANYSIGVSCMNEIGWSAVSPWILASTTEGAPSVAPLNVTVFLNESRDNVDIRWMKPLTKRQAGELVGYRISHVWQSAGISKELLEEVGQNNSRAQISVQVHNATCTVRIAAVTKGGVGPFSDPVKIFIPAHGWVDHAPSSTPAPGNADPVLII
As for the experimental part:
as §1, §2, §3

Assay [3] addresses T3, human MerTK extracellular domain (ECD), recombinant (human, UniProt Q12866 21-505).
T3 construct: also called huMerTK; not shown: polyHis tag or TEVS/Thrombin/murine IgG2a Fc tag
T3 sequence: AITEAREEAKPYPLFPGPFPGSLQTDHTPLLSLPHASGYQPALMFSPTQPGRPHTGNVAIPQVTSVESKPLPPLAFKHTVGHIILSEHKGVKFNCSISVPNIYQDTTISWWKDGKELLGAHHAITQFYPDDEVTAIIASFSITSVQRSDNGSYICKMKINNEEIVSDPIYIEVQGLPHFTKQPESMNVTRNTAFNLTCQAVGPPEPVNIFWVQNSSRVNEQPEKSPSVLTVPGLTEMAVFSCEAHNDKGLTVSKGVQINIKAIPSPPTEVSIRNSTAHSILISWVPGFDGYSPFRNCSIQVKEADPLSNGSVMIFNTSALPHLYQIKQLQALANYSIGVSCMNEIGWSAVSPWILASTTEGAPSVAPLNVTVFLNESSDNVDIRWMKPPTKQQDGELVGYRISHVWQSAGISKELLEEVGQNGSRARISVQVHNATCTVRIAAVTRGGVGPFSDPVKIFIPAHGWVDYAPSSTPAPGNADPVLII
As for the experimental part: as §1, §2, §3

The source of these data is patent publication US20210261685A1 (Alector, published 2021).

B1: MTK-29.12 (antibody, human IgG1, V domains shown)
VH: QVQLVQSGSELKKPGASVKVSCKASSYTFTTYGMSWVRQAPGQGLEWMGWINTMSGVPTYTDDFKGRFVFSLDTSVSTAYLQISSLKAEDTAVYYCARYTNYGVFDYWGQGTLVTVSS
VL: DIQLTQSPGFLSASVGDRVTITCRASSSVGYMHWYQQKPGKAPKLLIYATSNLAQGVPSRFSGSGSGTEFTLTISSLQPEDFATYYCQQWGSLPFTFGQGTKLEIK
A word on the Kd: it is the free concentration of one partner at which half of the binding sites on the other are occupied at equilibrium, for simple one-to-one binding. Turning to B1, the Kd was 250 nM in assay [1], 21 nM in assay [2] and 23 nM in assay [3].

B2: MTK-29.10 (antibody, human IgG1, V domains shown)
VH: QVQLVQSGSELKKPGASVKVSCKTSSYTFTTYGMSWVRQAPGQGLEWMGWINTYSGVPTYTDDFKGRFVFSLDTSVSTAYLQISSLKAEDTAVYYCARYTNYGVFDYWGQGTLVTVSS
VL: EIVLTQSPATLSLSPGERATLSCRASSSVGYMHWYQQKPGQAPRLLIYATSNLASGIPARFSGSGSGTDFTLTISRLEPEDFAVYYCQQWGSLPFTFGGGTKLEIK
As for B2, the results for the Kd in assay [1], in assay [2] and in assay [3] were 116 nM, 4.2 nM and 4.5 nM, respectively.

B3: MTK-29.16 (antibody, human IgG1, V domains shown)
VH: QVQLVQSGSELKKPGASVKVSCKASGYIFTSYGLSWVRQAPGQGLEWMGWVNTYSGVPTYTDDFKGRFVFSLDTSVSTAYLQISSLKAEDTAVYYCARYTNYGVFDYWGQGTLVTVSS
VL: DIQLTQSPSFLSASVGDRVTITCRASSSVGYMHWYQQKPGKAPKLLIYATSNLAQGVPSRFSGSGSGTEFTLTISSLQPEDFATYYCQQWGRLPFTFGQGTKLEIK
B3: the Kd in assay [1] is 205 nM; in assay [2] it was 8.8 nM; in assay [3], 8.6 nM.

B4: MTK-29.18 (antibody, human IgG1, V domains shown)
VH: QVQLVQSGSELKKPGASVKVSCKASGYIFTSYGLSWVRQAPGQGLEWMGWVNTYSGVPTYTDDFKGRFVFSLDTSVSTAYLQISSLKAEDTAVYYCARYTNYGVFDYWGQGTLVTVSS
VL: EIVLTQSPATLSLSPGERATLSCRASSTVGYMHWYQQKPGQAPRLLIYATSNLASGIPARFSGSGSGTDFTLTISRLEPEDFAVYYCQQWGSLPFTFGGGTKLEIK
Turning to B4, the Kd in assay [1] was 140 nM; in assay [2], 4.9 nM; in assay [3], 4.7 nM.

B5: MTK-29.15 (antibody, human IgG1, V domains shown)
VH: QVQLVQSGSELKKPGASVKVSCKASSYTFTTYGMSWVRQAPGQGLEWMGWINTMSGVPTYTDDFKGRFVFSLDTSVSTAYLQISSLKAEDTAVYYCARYTNYGVFDYWGQGTLVTVSS
VL: DIQLTQSPSFPSASVGDRVTITCRASSSVGYMHWYQQKPGKAPKLLIYATSNLAQGVPSRFSGSGSGTEFTLTISSLQPEDFATYYCQQWGSLPFTFGQGTKLEIK
With B5, the binding result in assay [1] was “no binding (tested: 300 nM)”. Besides, the Kd in assay [2] was 8.4 nM; in assay [3], 7.4 nM.

B6: MTK-29.17 (antibody, human IgG1, V domains shown)
VH: QVQLVQSGSELKKPGASVKVSCKASGYIFTSYGLSWVRQAPGQGLEWMGWINTYSGVPTYAQGFTGRFVFSLDTSVSTAYLQISSLKAEDTAVYYCARYTNYGVFDYWGQGTLVTVSS
VL: DIQLTQSPSFLSASVGDRVTITCRSSSSVGYMHWYQQKPGKAPKLLIYATSNLAQGVPSRFSGSGSGTEFTLTISSLQPEDFATYYCQQWGSLPFTFGQGTKLEIK
In the case of B6, the Kd in assay [1] was determined as 170 nM; in assay [2], 9.9 nM; in assay [3], 9.6 nM.

B7: MTK-29.11 (antibody, human IgG1, V domains shown)
VH: QVQLVQSGSELKKPGASVKVSCKASSYTFTTYGMSWVRQAPGQGLEWMGWINTDSGVPTYTDDFKGRFVFSLDTSVSTAYLQISSLKAEDTAVYYCARYTNYGVFDYWGQGTLVTVSS
VL: EIVLTQSPATLSLSPGERATLSCRASSSVGYMHWYQQKPGQAPRLLIYATSNLASGIPARFSGSGSGTDFTLTISRLEPEDFAVYYCQQWGSLPFTFGGGTKLEIK
For B7, the values for the Kd in assay [1], in assay [2] and in assay [3] were 59 nM, 2.4 nM and 2.1 nM, respectively.

B8: MTK-29.14 (antibody, human IgG1, V domains shown)
VH: QVQLVQSGSELKKPGASVKVSCKASSYTFTTYGMSWVRQAPGQGLEWMGWINTYSGVPSYTDDFKARFVFSLDTSVSTAYLQISSLKAEDTAVYYCARYTNYGVFDYWGQGTLVTVSS
VL: DIQLTQSPSFLSASVGDRVTITCRASSSVGYMHWYQQKPGKAPKLLIYATSNLAQGVPSRFSGSGSGTEFTLTIFSLQPEDFATYYCQQWGSLPFTFGQGTKLEIK
Take B8: the values for the Kd in assay [1], in assay [2] and in assay [3] were 100 nM, 7.3 nM and 7.6 nM, respectively.

B9: MTK-29.13 (antibody, human IgG1, V domains shown)
VH: QVQLVQSGSELKKPGASVKVSCKASSYTFTTYGMSWVRQAPGQGLEWMGWINTASGVPTYTDDFKGRFVFSLDTSVSTAYLQISSLKAEDTAVYYCARYTNYGVFDYWGQGTLVTVSS
VL: DIQLTQSPSFLSASVGDRVTITCRASSSVGYMHWYQQEPGKAPKLLIYATSNLAQGVPSRFSGSGSGTEFTLTISSLQPEDFATYYCQQWGSLPFTFGQGTKLEIK
As for B9, the Kd in assay [1] was 170 nM; in assay [2], 11 nM; in assay [3] it was 13 nM.

B10: MTK-33.13 (antibody, human IgG1, V domains shown)
VH: QVQLVQSGAEVKKPGASVKVSCKASGYTFTSYWMHWVRQAPGQGLEWIGVIDPSDNYINYNQKFQGRVTMTRDTSTSTVYMELSSLRSEDTAVYYCAREAGTRGYFDYWGQGTLVTVSS
VL: DIQMTQSPSSLSASVGDRVTITCQASRSVSNTVAWYQQKPGKAPKLLIYYASNRYTGVPSRFSGSGSGTDFTFTISSLQPEDIATYYCQQDYRSPFTFGQGTKLEIK
Take B10: the results for the Kd in assay [1], in assay [2] and in assay [3] were 225 nM, 18 nM and 20 nM, respectively.

B11: MTK-33.7 (antibody, human IgG1, V domains shown)
VH: QVQLVQSGAEVKKPGASVKVSCKASGYTFTSYWMHWVRQAPGQGLEWIGVIDPSDNYINYNAKFQGRVTMTRDTSTSTVYMELSSLRSEDTAVYYCAREAGTRGYFDYWGQGTLVTVSS
VL: DIQMTQSPSSLSASVGDRVTITCGASQSVSNTVAWYQQKPGKAPKLLIYYASNRYTGVPSRFSGSGSGTDFTFTISSLQPEDIATYYCQQDYRSPFTFGQGTKLEIK
Consider B11, for which the Kd came out at 800 nM in assay [1], 78 nM in assay [2] and 78 nM in assay [3].

B12: MTK-33.5 (antibody, human IgG1, V domains shown)
VH: QVQLVQSGAEVKKPGASVKVSCMASGYTFGSYWMHWVRQAPGQGLEWIGVIDPSDNYINYNQKFQGRVTMTRDTSTSTVYMELSSLRSEDTAVYYCAREAGTRGYFDYWGQGTLVTVSS
VL: DIQMTQSPSSLSASVGDRVTITCQASQSVSNTVAWYQQKPGKAPKLLIYYASNRETGVPSRFSGSGSGTDFTFTISSLQPEDIGTYYCQQDYRSPFTFGQGTKLEIK
Turning to B12, the Kd in assay [1] came to 140 nM; in assay [2], 26 nM; in assay [3], 28 nM.
